Experimental data from the supplement of paper PMC9112550, “Optimization of the antimicrobial peptide Bac7 by deep mutational scanning” (BMC Biology, 2022).

System: Escherichia coli TOP10
Experiment: shrunken log2 fold change of peptide-encoding DNA abundance (4.5 h post-induction vs induction); higher = less antimicrobial activity (less host growth inhibition)
Conditions: time post-induction: 4.5 h; library: site-saturation at positions 5, 18, 19, 20
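Further: peptides expressed intracellularly from a pBAD plasmid library in pooled LB shake-flask culture, induced with 0.3% L-arabinose, DNA abundance read by NGS, three biological replicates, DESeq2 with apeglm shrinkage.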

**Q.** For RRIRPRPPRLPRPRPRPIKMPRP, which “shrunken log2 fold change” value is on record?
**A.** 0.0328

**Q.** Which “shrunken log2 fold change” value does the source give for RRIRIRPPRLPRPRPRPFYKPRP here?
**A.** -0.0824

**Q.** How did the “shrunken log2 fold change” value turn out when RRIRARPPRLPRPRPRPCNMPRP was run?
**A.** -0.253

**Q.** For RRIRPRPPRLPRPRPRPQPIPRP, which “shrunken log2 fold change” value is on record?
**A.** 0.0388

**Q.** How did the “shrunken log2 fold change” value turn out when RRIRWRPPRLPRPRPRPEDSPRP was run?
**A.** 0.769

**Q.** Which “shrunken log2 fold change” value does the source give for RRIRERPPRLPRPRPRPTIAPRP here?
**A.** -0.25

**Q.** RRIRRRPPRLPRPRPRPMDMPRP was tested. Which “shrunken log2 fold change” value did it give?
**A.** 0.0833

**Q.** With RRIRPRPPRLPRPRPRPNCFPRP as the sequence, how does the “shrunken log2 fold change” value read?
**A.** -0.0261

**Q.** With RRIRLRPPRLPRPRPRPMRVPRP as the sequence, how does the “shrunken log2 fold change” value read?
**A.** 0.115

**Q.** For RRIRVRPPRLPRPRPRPKWHPRP, which “shrunken log2 fold change” value is on record?
**A.** -0.123

**Q.** Which “shrunken log2 fold change” value does the source give for RRIRTRPPRLPRPRPRPTFNPRP here?
**A.** -0.199

**Q.** With RRIRIRPPRLPRPRPRPTEMPRP as the sequence, how does the “shrunken log2 fold change” value read?
**A.** 0.112

**Q.** Which “shrunken log2 fold change” value does the source give for RRIRDRPPRLPRPRPRPNEWPRP here?
**A.** -0.00174

**Q.** How did the “shrunken log2 fold change” value turn out when RRIRVRPPRLPRPRPRPHLVPRP was run?
**A.** -0.133

**Q.** For RRIRMRPPRLPRPRPRPLKWPRP, which “shrunken log2 fold change” value is on record?
**A.** 0.196

**Q.** RRIRLRPPRLPRPRPRPWYRPRP was tested. Which “shrunken log2 fold change” value did it give?
**A.** -0.3

**Q.** For RRIRQRPPRLPRPRPRPRRIPRP, which “shrunken log2 fold change” value is on record?
**A.** -0.27

**Q.** Which “shrunken log2 fold change” value does the source give for RRIRERPPRLPRPRPRPKFHPRP here?
**A.** -0.554

**Q.** Which “shrunken log2 fold change” value does the source give for RRIRHRPPRLPRPRPRPKICPRP here?
**A.** 0.0596

**Q.** With RRIRWRPPRLPRPRPRPGKDPRP as the sequence, how does the “shrunken log2 fold change” value read?
**A.** -0.222

**Q.** How did the “shrunken log2 fold change” value turn out when RRIRERPPRLPRPRPRPKKFPRP was run?
**A.** -0.524

**Q.** Which “shrunken log2 fold change” value does the source give for RRIRERPPRLPRPRPRPCGCPRP here?
**A.** -0.0805

**Q.** For RRIRERPPRLPRPRPRPSWYPRP, which “shrunken log2 fold change” value is on record?
**A.** -1

**Q.** Which “shrunken log2 fold change” value does the source give for RRIRNRPPRLPRPRPRPYQTPRP here?
**A.** -0.00141

**Q.** For RRIRDRPPRLPRPRPRPFMGPRP, which “shrunken log2 fold change” value is on record?
**A.** -0.27

**Q.** With RRIRIRPPRLPRPRPRPTFHPRP as the sequence, how does the “shrunken log2 fold change” value read?
**A.** -0.266

**Q.** How did the “shrunken log2 fold change” value turn out when RRIRQRPPRLPRPRPRPKFPPRP was run?
**A.** 0.118

**Q.** How did the “shrunken log2 fold change” value turn out when RRIRRRPPRLPRPRPRPCTAPRP was run?
**A.** 0.866

**Q.** For RRIRTRPPRLPRPRPRPYGDPRP, which “shrunken log2 fold change” value is on record?
**A.** 0.00839

**Q.** With RRIRQRPPRLPRPRPRPRKVPRP as the sequence, how does the “shrunken log2 fold change” value read?
**A.** -0.00271

**Q.** How did the “shrunken log2 fold change” value turn out when RRIRGRPPRLPRPRPRPEHTPRP was run?
**A.** 0.0464

**Q.** For RRIRDRPPRLPRPRPRPYPDPRP, which “shrunken log2 fold change” value is on record?
**A.** -0.27

**Q.** For RRIRHRPPRLPRPRPRPFWMPRP, which “shrunken log2 fold change” value is on record?
**A.** -0.0444

**Q.** RRIRWRPPRLPRPRPRPYVAPRP was tested. Which “shrunken log2 fold change” value did it give?
**A.** -0.492

**Q.** For RRIRHRPPRLPRPRPRPMKKPRP, which “shrunken log2 fold change” value is on record?
**A.** -0.0202

**Q.** With RRIRHRPPRLPRPRPRPDWDPRP as the sequence, how does the “shrunken log2 fold change” value read?
**A.** -0.0204

**Q.** Which “shrunken log2 fold change” value does the source give for RRIRPRPPRLPRPRPRPNMTPRP here?
**A.** -0.13

**Q.** With RRIRPRPPRLPRPRPRPKEDPRP as the sequence, how does the “shrunken log2 fold change” value read?
**A.** 0.176

**Q.** How did the “shrunken log2 fold change” value turn out when RRIRSRPPRLPRPRPRPRFHPRP was run?
**A.** -0.302

**Q.** With RRIRARPPRLPRPRPRPCKEPRP as the sequence, how does the “shrunken log2 fold change” value read?
**A.** 0.000506

**Q.** How did the “shrunken log2 fold change” value turn out when RRIRKRPPRLPRPRPRPYFEPRP was run?
**A.** -0.584

**Q.** Which “shrunken log2 fold change” value does the source give for RRIRGRPPRLPRPRPRPLDFPRP here?
**A.** 0.78

**Q.** How did the “shrunken log2 fold change” value turn out when RRIRNRPPRLPRPRPRPYQMPRP was run?
**A.** -0.246

**Q.** With RRIRKRPPRLPRPRPRPLKNPRP as the sequence, how does the “shrunken log2 fold change” value read?
**A.** 0.211

**Q.** Which “shrunken log2 fold change” value does the source give for RRIRDRPPRLPRPRPRPDLKPRP here?
**A.** 0.169

**Q.** Which “shrunken log2 fold change” value does the source give for RRIRLRPPRLPRPRPRPSNYPRP here?
**A.** -0.53

**Q.** RRIRARPPRLPRPRPRPHHHPRP was tested. Which “shrunken log2 fold change” value did it give?
**A.** -0.469

**Q.** For RRIRGRPPRLPRPRPRPHHEPRP, which “shrunken log2 fold change” value is on record?
**A.** 0.325

**Q.** For RRIRKRPPRLPRPRPRPPQWPRP, which “shrunken log2 fold change” value is on record?
**A.** 1.37

**Q.** With RRIRIRPPRLPRPRPRPDTSPRP as the sequence, how does the “shrunken log2 fold change” value read?
**A.** -0.283

**Q.** With RRIRCRPPRLPRPRPRPIHFPRP as the sequence, how does the “shrunken log2 fold change” value read?
**A.** -0.368

**Q.** With RRIRKRPPRLPRPRPRPMLPPRP as the sequence, how does the “shrunken log2 fold change” value read?
**A.** 0.349

**Q.** Which “shrunken log2 fold change” value does the source give for RRIRFRPPRLPRPRPRPDFLPRP here?
**A.** -0.453

**Q.** How did the “shrunken log2 fold change” value turn out when RRIRSRPPRLPRPRPRPRILPRP was run?
**A.** -0.34

**Q.** How did the “shrunken log2 fold change” value turn out when RRIRQRPPRLPRPRPRPHPFPRP was run?
**A.** -0.29

**Q.** For RRIRERPPRLPRPRPRPTMVPRP, which “shrunken log2 fold change” value is on record?
**A.** 0.0432

**Q.** For RRIRPRPPRLPRPRPRPYIMPRP, which “shrunken log2 fold change” value is on record?
**A.** -0.976

**Q.** Which “shrunken log2 fold change” value does the source give for RRIRPRPPRLPRPRPRPKEWPRP here?
**A.** -0.00152

**Q.** For RRIRDRPPRLPRPRPRPMYVPRP, which “shrunken log2 fold change” value is on record?
**A.** -0.243

**Q.** For RRIRRRPPRLPRPRPRPLCYPRP, which “shrunken log2 fold change” value is on record?
**A.** -0.236

**Q.** RRIRRRPPRLPRPRPRPSRDPRP was tested. Which “shrunken log2 fold change” value did it give?
**A.** 0.303

**Q.** For RRIRPRPPRLPRPRPRPFSNPRP, which “shrunken log2 fold change” value is on record?
**A.** -0.218

**Q.** Which “shrunken log2 fold change” value does the source give for RRIRIRPPRLPRPRPRPRKPPRP here?
**A.** -0.0479

**Q.** With RRIRRRPPRLPRPRPRPTQFPRP as the sequence, how does the “shrunken log2 fold change” value read?
**A.** 0.384

**Q.** How did the “shrunken log2 fold change” value turn out when RRIRSRPPRLPRPRPRPWYPPRP was run?
**A.** -0.301

**Q.** For RRIRMRPPRLPRPRPRPWKKPRP, which “shrunken log2 fold change” value is on record?
**A.** 0.234

**Q.** With RRIRCRPPRLPRPRPRPYEMPRP as the sequence, how does the “shrunken log2 fold change” value read?
**A.** -0.151

**Q.** With RRIRMRPPRLPRPRPRPGWEPRP as the sequence, how does the “shrunken log2 fold change” value read?
**A.** 0.888

**Q.** RRIRCRPPRLPRPRPRPMPFPRP was tested. Which “shrunken log2 fold change” value did it give?
**A.** -0.0545

**Q.** For RRIRRRPPRLPRPRPRPQMGPRP, which “shrunken log2 fold change” value is on record?
**A.** 0.231

**Q.** RRIRKRPPRLPRPRPRPMSKPRP was tested. Which “shrunken log2 fold change” value did it give?
**A.** 0.388

**Q.** For RRIRGRPPRLPRPRPRPCIMPRP, which “shrunken log2 fold change” value is on record?
**A.** 0.177

**Q.** For RRIRIRPPRLPRPRPRPQKMPRP, which “shrunken log2 fold change” value is on record?
**A.** -0.269

**Q.** RRIRSRPPRLPRPRPRPFPIPRP was tested. Which “shrunken log2 fold change” value did it give?
**A.** 0.0325

**Q.** RRIRIRPPRLPRPRPRPQNGPRP was tested. Which “shrunken log2 fold change” value did it give?
**A.** -0.294
